# The supplement of paper PMC11246515
# ± gives the standard deviation of the averaged measurements.
# Test: total protein half-life in vivo (active degradation + dilution); higher = more stable protein
# [1] = wild type E. coli NCM3722, growth: P-lim chemostat, doubling time 6 h
# [2] = E. coli NCM3722 delta-clpP delta-lon delta-hslV, growth: N-lim chemostat, doubling time 6 h
# [3] = E. coli NCM3722 delta-hslV, growth: N-lim chemostat, doubling time 6 h
# [4] = E. coli NCM3722 delta-lon, growth: N-lim chemostat, doubling time 6 h
# [5] = E. coli NCM3722 delta-smpB, growth: N-lim chemostat, doubling time 6 h
# [6] = wild type E. coli NCM3722, growth: C-lim chemostat, doubling time 3 h
# [7] = wild type E. coli NCM3722, growth: C-lim chemostat, doubling time 6 h
# [8] = wild type E. coli NCM3722, growth: C-lim chemostat, doubling time 12 h
# [9] = wild type E. coli NCM3722, growth: N-lim chemostat, doubling time 6 h
# [10] = wild type E. coli NCM3722, growth: N-lim chemostat, doubling time 12 h
# [11] = wild type E. coli NCM3722, growth: P-lim chemostat, doubling time 12 h
# [12] = E. coli NCM3722 delta-clpP, growth: N-lim chemostat, doubling time 6 h
Sequence,total protein half-life in vivo [1] [h],total protein half-life in vivo [2] [h],total protein half-life in vivo [3] [h],total protein half-life in vivo [4] [h],total protein half-life in vivo [5] [h],total protein half-life in vivo [6] [h],total protein half-life in vivo [7] [h],total protein half-life in vivo [8] [h],total protein half-life in vivo [9] [h],total protein half-life in vivo [10] [h],total protein half-life in vivo [11] [h],total protein half-life in vivo [12] [h]
MKRLIMATMVTAILASSTVWAADNAPVAAQQQTQQVQQTQKTAAAAERISEQGLYAMRDVQVARLALFHGDPEKAKELTNEASALLSDDSTEWAKFAKPGKKTNLNDDQYIVINASVGISESYVATPEKEAAIKIANEKMAKGDKKGAMEELRLAGVGVMENQYLMPLKQTRNALADAQKLLDKKQYYEANLALKGAEDGIIVDSEALFVN,4.05,,,,,,,,,,,
MVKSTPCITIDFMNMSQLTERTFTPSESLSSLSLFLSLARGQCRPGKFWHRRSFRQKFLLRSLIMPRLSVEWMNELSHWPNLNVLLTRQPRLPVRLHRPYLAANLSRKQLLEALRYHYALLRECMSAEEFSLYLNTPGLQLAKLEGKNGEQFTLELTMMISMDKEGDSTILFRNSEGIPLAEITFTLCEYQGKRTMFIGGLQGAKWEIPHQEIQNATKACHGLFPKRLVMEAACLFAQRLQVEQIIAVSNETHIYRSLRYRDKEGKIHADYNAFWESVGGVCDAERHYRLPAQIARKEIAEIASKKRAEYRRRYEMLDAIQPQMATMFRG,,3.06 ± 0.041,0.723,1.38 ± 0.35,0.646 ± 0.039,0.953 ± 0.067,0.7307 ± 0.0013,1.31,1.16 ± 0.38,1.2 ± 0.25,2.33,
MSTITLLCIALAGVIMLLLLVIKAKVQPFVALLLVSLLVALAAGIPAGEVGKVMIAGMGGVLGSVTIIIGLGAMLGRMIEHSGGAESLANYFSRKLGDKRTIAALTLAAFFLGIPVFFDVGFIILAPIIYGFAKVAKISPLKFGLPVAGIMLTVHVAVPPHPGPVAAAGLLHADIGWLTIIGIAISIPVGVVGYFAAKIINKRQYAMSVEVLEQMQLAPASEEGATKLSDKINPPGVALVTSLIVIPIAIIMAGTVSATLMPPSHPLLGTLQLIGSPMVALMIALVLAFWLLALRRGWSLQHTSDIMGSALPTAAVVILVTGAGGVFGKVLVESGVGKALANMLQMIDLPLLPAAFIISLALRASQGSATVAILTTGGLLSEAVMGLNPIQCVLVTLAACFGGLGASHINDSGFWIVTKYLGLSVADGLKTWTVLTTILGFTGFLITWCVWAVI,,,,,,,,15.2,,,,
MSIDFTPGIINTYHGDIYNCTTNTDNAKTPDTPKWPCDNWEEQQPINSTFSGEGYISDQYDLAQHQLQQINACHTNTTYTNADYSKVVAQLVSLITNIETISSTQLTQQTQSILNQINNIRYEKNKSAECRIIVIANPKPDKAIITKISVEEGIPITFSVQTMFSDTNFIAEQRADLPTNIKDIQSLYQKMTKLYIEHSENKNRMKVFAGTNFIDFNMTGQNLSGFVLTLSRFYFEDLLNINFTDANLGKVRISGEILLG,,,,,,,,,,8.68,14.6,5.86
MKTLATIGDNCVDIYPQLNKAFSGGNAVNVAVYCTRYGIQPGCITWVGDDDYGTKLKQDLARMGVDISHVHTKHGVTAQTQVELHDNDRVFGDYTEGVMADFALSEEDYAWLAQYDIVHAAIWGHAEDAFPQLHAAGKLTAFDFSDKWDSPLWQTLVPHLDFAFASAPQEDETLRLKMKAIVARGAGTVIVTLGENGSIAWDGAQFWRQAPEPVTVIDTMGAGDSFIAGFLCGWSAGMTLPQAIAQGTACAAKTIQYHGAW,,5.37,4.2 ± 0.26,> 8,3.48,1.68,3.27,7.21 ± 0.47,,,,3.97
MKLNDSNLFRQQALINGEWLDANNGEAIDVTNPANGDKLGSVPKMGADETRAAIDAANRALPAWRALTAKERATILRNWFNLMMEHQDDLARLMTLEQGKPLAEAKGEISYAASFIEWFAEEGKRIYGDTIPGHQADKRLIVIKQPIGVTAAITPWNFPAAMITRKAGPALAAGCTMVLKPASQTPFSALALAELAIRAGVPAGVFNVVTGSAGAVGNELTSNPLVRKLSFTGSTEIGRQLMEQCAKDIKKVSLELGGNAPFIVFDDADLDKAVEGALASKFRNAGQTCVCANRLYVQDGVYDRFAEKLQQAVSKLHIGDGLDNGVTIGPLIDEKAVAKVEEHIADALEKGARVVCGGKAHERGGNFFQPTILVDVPANAKVSKEETFGPLAPLFRFKDEADVIAQANDTEFGLAAYFYARDLSRVFRVGEALEYGIVGINTGIISNEVAPFGGIKASGLGREGSKYGIEDYLEIKYMCIGL,5.72 ± 0.12,4.773 ± 0.035,3.93 ± 0.08,4.251 ± 0.0095,3.87 ± 0.14,2.86 ± 0.26,5.44 ± 0.58,9.938 ± 0.016,3.96 ± 0.29,5.95 ± 0.61,11 ± 0.44,4.35 ± 0.32
MFLIITRDTMFFTAMKNILSKGNVVHIQNEEEIDVMLHQNAFVIIDTLMNNVFHSNFLTQIERLKPVHVIIFSPFNIKRCLGKVPVTFVPRTITIIDFVALINGSYCSVPEAAVSLSRKQHQVLSCIANQMTTEDILEKLKISLKTFYCHKHNIMMILNLKRINELVRHQHIDYLV,,3.86 ± 0.062,3.24 ± 0.28,3.74 ± 0.092,3.036 ± 0.0077,,,,2.94 ± 0.13,8.12,4.78,3.81
MTKMSRYALITALAMFLAGCVGQREPAPVEEVKPAPEQPAEPQQPVPTVPSVPTIPQQPGPIEHEDQTAPPAPHIRHYDWNGAMQPMVSKMLGADGVTAGSVLLVDSVNNRTNGSLNAAEATETLRNALANNGKFTLVSAQQLSMAKQQLGLSPQDSLGTRSKAIGIARNVGAHYVLYSSASGNVNAPTLQMQLMLVQTGEIIWSGKGAVSQQ [P0AB38],5.94 ± 0.24,5.22 ± 0.26,6.59 ± 0.23,6.43 ± 0.46,6.495 ± 0.062,3.38 ± 0.095,6.19 ± 0.46,10.9 ± 0.91,6.102 ± 0.019,12.3 ± 0.41,11.7 ± 1.2,5.7 ± 0.39
MKTKVAAIYGKRDVRLRVFELPEITDNELLVSVISDSVCLSTWKAALLGSEHKRVPDDLENHPVITGHECAGVIVEVGKNLTGKYKKGQRFVLQPAMGLPSGYSAGYSYEYFGGNATYMIIPEIAINLGCVLPYHGSYFAAASLAEPMCCIIGAYHANYHTTQYVYEHRMGVKPGGNIALLACAGPMGIGAIDYAINGGIQPSRVVVVDIDDKRLAQVQKLLPVELAASKGIELVYVNTKGMSDPVQMLRALTGDAGFDDIFVYAAVPAVVEMADELLAEDGCLNFFAGPTDKNFKVPFNFYNVHYNSTHVVGTSGGSTDDMKEAIALSATGQLQPSFMVTHIGGLDAVPETVLNLPDIPGGKKLIYNGVTMPLTAIADFAEKGKTDPLFKELARLVEETHGIWNEQAEKYLLAQFGVDIGEAAQ,,6.04 ± 0.11,,,,,,,,,,
